# Measured values from EP4582453A1 (Cichlid Inc., dated 2025).
# T1: human CTLA-4 protein overexpressed in the HEK293 cell line (human, UniProt P16410 36-223)
# T1 construct: whole, on cells; also called CTLA-4/HEK293 cell line; CTLA-4 expressing cell line
# T1 sequence (looked up): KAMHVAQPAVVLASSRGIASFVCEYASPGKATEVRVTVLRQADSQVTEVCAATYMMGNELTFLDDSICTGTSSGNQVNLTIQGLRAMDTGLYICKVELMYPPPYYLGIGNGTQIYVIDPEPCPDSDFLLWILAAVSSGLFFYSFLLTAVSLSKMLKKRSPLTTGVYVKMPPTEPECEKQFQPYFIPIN
# B1: 4B6 scFv (scFv, V domains shown)
# VH: EVQLLESGGGLVQPGGSLRLSCAASGFTFSGYSMSWVRQAPGKGLEWVSSISPSGGNTYYADSVKGRFTISRDNSKNTLYLQMNSLRAEDTAVYYCAKTSELFDYWGQGTLVTVSS
# VL: QSVLTQPPSASGTPGQRVTISCTGSSSNIGSNDVNWYQQLPGTAPKLLIYNDSHRPSGVPDRFSGSKSGTSASLAISGLRSEDEADYYCGTWDYSLSAYVFGGGTKLTV
# notes: HA-tagged scFv
# B2: 3E4 scFv (scFv, V domains shown)
# VH: EVQLLESGGGLVQPGGSLRLSCAASGFTFSNYAMSWVRQAPGKGLEWVSVIYYDGSNKYYADSVKGRFTISRDNSKNTLYLQMNSLRAEDTAVYYCARNTYRFDYWGQGTLVTVSS
# VL: QSVLTQPPSASGTPGQRVTISCSGSSSNIGNNAVTWYQQLPGTAPKLLIYSDSNRPSGVPDRFSGSKSGTSASLAISGLRSEDEADYYCGSWDSSLSGYVFGGGTKLTVL
# notes: HA-tagged scFv from a synthetic human scFv phage library, tested as an E. coli extract; VH and VL form one chain in the scFv
# Biological target: T1, human CTLA-4 protein overexpressed in …
# Assay: cell ELISA of HA-tagged scFv extract on CTLA-4-expressing HEK293 cells, anti-HA HRP
binder,measurement,value
B1,binding result,binds
B2,binding result,binds
